Assay results published in the supplement of paper PMC12042874.
± gives the uncertainty stated by the source.

Experiment: amyloid nucleation score (Sup35N fusion, yeast selection) (log enrichment); library NNK3; higher = more nucleation; inactive = no reads after selection
How it was run: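 The nucleation score is a DiMSum log enrichment of output over input reads, centred on the mode score of non-aggregating sequences. Sequences under 100 input reads were excluded, and reads came from Illumina sequencing of plasmid inserts. Psi-negative yeast expressing Sup35N fused to peptides of 20 random codons were induced with 100 μM copper sulfate for 24 hours and grown 7 days at 30°C on medium lacking adenine and uracil. Random libraries had three technical output replicates.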

Row | Substance | amyloid nucleation score
1 | THNVRDMLPATETFASKSGG | 1.1 ± 0.17
2 | TICGYI | inactive
3 | TICLDLLDWEVEGPYNVVSG | inactive
4 | TICPWNATLGGKGDRSMK | inactive
5 | TIGFFSVVNYVWFSAYNWQS | -0.453 ± 0.35
6 | TIPFRAINPVSM | inactive
7 | TISLGE | inactive
8 | TIYCWTQNIHDY | 2.3 ± 0.086
9 | TKRWFGLCYESVKLRVRSFA | inactive
10 | TKRWHR | inactive
11 | TKVNL | inactive
12 | TKWFCVFTLSRNINRFTRL | inactive
13 | TKYTNPHERSIEMSLFRERQ | inactive
14 | TLCST | inactive
15 | TLFERRCSGTIMHRIQRREF | inactive
16 | TLFGFCAREIVRMRNDHIQV | inactive
17 | TLFSSCGLVHLLNCMRWPPG | inactive
18 | TLGTLSICLCIFRYPGKTEA | inactive
19 | TLHIF | inactive
20 | TLHVCIVLSPGRW | inactive
21 | TLILTDRTWLNDLSSLLIQL | inactive
22 | TLLARFSPRLATTYSNAICG | inactive
23 | TLLGNINPLLW | inactive

Row | Substance | amyloid nucleation score
24 | TLMISPENIVRR | inactive
25 | TLNGFLNGYEYQ | inactive
26 | TLQHLGYVSNIWGVVTAAGS | inactive
27 | TLRDKNLLEPIKCDWYTIKT | inactive
28 | TLRLLDTVMWHKLGGTRAMS | inactive
29 | TLRVYAMVLTWAPKLSFWRS | inactive
30 | TLSCYECPVVVRILVVRNCV | inactive
31 | TLSELLR | inactive
32 | TLSWLRPPPSRPLLFHEVSW | -0.246 ± 0.8
33 | TLTGVPAGSTT | inactive
34 | TLTYRSSQND | inactive
35 | TLVGFRALKYIRWTCLAHRF | inactive
36 | TLVIHIN | inactive
37 | TLYFYNTCLRQCKQYFIDFR | 0.305 ± 0.16
38 | TMASYWPMERRRTASELPGV | inactive
39 | TMHLTHRYSTVLRESLVGSR | inactive
40 | TMSVMPLTVQVLVGRISDGQ | 1.71 ± 0.071
41 | TMTIDESTWVVSANMSYRMK | 1.37 ± 0.1
42 | TNESIMCGLAT | inactive
43 | TNMVMA | inactive
44 | TNQQYGSLGFISTSGIILLF | inactive
45 | TNRMDKYCCV | inactive
46 | TNSFAYNWLNAW | inactive

Row | Substance | amyloid nucleation score
47 | TNTPIMKCELHTRDFVKVIS | inactive
48 | TNYICCSFRFPWNHSYV | 3.4 ± 0.061
49 | TNYNHCKCEIGLGHILARFT | inactive
50 | TPHESLRTCFLTKR | inactive
51 | TPHFYLIYALGISLIFWFVE | inactive
52 | TPSRLPQAACWQ | inactive
53 | TPVTGQQWNCFCTILHSE | 2.52 ± 0.08
54 | TQDGELV | inactive
55 | TQHTTYTPLPHTELRLPYPQ | inactive
56 | TQMILWVM | inactive
57 | TQRTGY | inactive
58 | TRFARA | inactive
59 | TRFGRSANWLFFSAPTGRQN | inactive
60 | TRFVTRNDMYLRYILVCRVA | inactive
61 | TRHWDVRSRISRTLVCFGLK | inactive
62 | TRLWDKD | inactive
63 | TRNLPTN | inactive
64 | TRTHPDVNRAKMDVKGDAKI | inactive
65 | TSFGPKLPTGVFVCEGSNDR | inactive
66 | TSGGQRAAVWIYFTNEVMKY | 0.207 ± 0.34
67 | TSILEWVSFDGSM | inactive
68 | TSLLGLRKHFLPHLIYMRNS | inactive
69 | TSQGIYHVVCCSSSEFRTLG | 2.48 ± 0.055

Row | Substance | amyloid nucleation score
70 | TSRDQPRNVYVVVAVI | inactive
71 | TSRNESHTSDYSLLNHNSLL | inactive
72 | TSSLDEGTFV | 0.644 ± 0.16
73 | TSTRSEAFRVVVTLPVAVNW | inactive
74 | TSVDGLCSFMDLRL | inactive
75 | TSVTSTSLSGSLSAV | inactive
76 | TSVWVYTVPSFVGNDIDTS | inactive
77 | TSWLVWRKGNGLGGNGQQRR | inactive
78 | TSYNFTQLTPILVKLMQMNL | inactive
79 | TTDFSNMLDLSGVKVSGVLP | inactive
80 | TTEFKIDR | inactive
81 | TTFIN | inactive
82 | TTFSGETYEYYMFMCW | 0.532 ± 0.17
83 | TTFSLTLIGFNDSGVKLLM | 2.21 ± 0.069
84 | TTIFLDS | inactive
85 | TTLVSNWQCSMGCCEVLWR | 3.32 ± 0.075
86 | TTMWTIKENFTWIVITVDSI | inactive
87 | TTPYWRRECRWSEFGFA | inactive
88 | TTSNMGVVHYL | inactive
89 | TVDVIRYISPDLDKTSYEWK | inactive
90 | TVEQYWRNEREWF | inactive
91 | TVGGEIVNSLGVWCYRVCKR | 0.723 ± 0.26
92 | TVGSRGSTPHCTLLLVSWSL | inactive

Row | Substance | amyloid nucleation score
93 | TVGVKKYAMGRRYIV | inactive
94 | TVHILANRPRAQYD | inactive
95 | TVLVAGIGCEWSMGESTAMW | inactive
96 | TVPDRDFMFIRIRSHCYVVD | inactive
97 | TVPIILVSTVRANMFFETRN | 1.54 ± 0.093
98 | TVQFMRKAQRQFSGA | inactive
99 | TVRDTEFLWFGDWLRRGSLS | -0.034 ± 0.77
100 | TVTLRRYLSMERPYTSIFSI | inactive
101 | TVTWDWNRSEEGRCYLLLWV | inactive
102 | TWCGFWTLMERVYHRRWTSL | inactive
103 | TWDLY | inactive
104 | TWWCLN | inactive
105 | TYCLKLMSQAAPTIEKT | inactive
106 | TYDTGWKCREPNVTIFNVWL | 2.91 ± 0.053
107 | TYEVRTCWDWQRMGSMYLAR | inactive
108 | TYFKSGRNILAHIYMWLILG | inactive
109 | TYFLSDWWRDRSNWLWFLAH | inactive
110 | TYKHTSWETLDDVFSDGSSS | inactive
111 | TYLIWLGHRAHPMSLLHSFA | inactive
112 | TYLNTVRLKSGMMMNMKSTR | inactive
113 | TYPVGPGGFFWDLGCV | inactive
114 | TYRVLE | inactive
115 | TYTWKVTNSTISQLFGYLAD | inactive

Row | Substance | amyloid nucleation score
116 | TYYADTLAFNSTS | inactive
117 | TYYLSMN | inactive
118 | VAAMSVFSVGCLINIALRSN | 0.93 ± 0.2
119 | VACCAGFDNRAVLWGCANPI | inactive
120 | VAFMIHYMKLPKYSHPWVHN | 0.041 ± 0.59
121 | VALWLVWLFYMRFRGSSFEL | inactive
122 | VASIFRVYAVVGWSVVLVGV | inactive
123 | VAVLVNALSLPEVGKGVVRR | 1.84 ± 0.083
124 | VCEGMKMAALRYREERC | inactive
125 | VCLFHDSLRDNYRT | inactive
126 | VCMLVMYESRLNVEKAVLLG | -0.083 ± 0.64
127 | VCSCAHGHTGSEESRSVGSA | inactive
128 | VCSSGQKSLKMLRIFHIFNP | -0.352 ± 0.87
129 | VCSVVARWFVESFCCISWMC | inactive
130 | VCTLGFFSKMGRGPRYYS | inactive
131 | VCVLMIFNIVRRGMYSSARV | inactive
132 | VCVNSLPYLICDIRVIIDRG | 1.11 ± 0.13
133 | VCVSVRDTCGLCLLVYDNTV | 2.11 ± 0.079
134 | VCYYRQACTITNLLVMVFVC | inactive
135 | VDEADVRKHMT | inactive
136 | VDMSNFRANVVTHSPIGGLR | inactive
137 | VDNSFEYIWDLFTVDHMSGA | inactive
138 | VDSHANHGSNHRWSASDEIS | inactive

Row | Substance | amyloid nucleation score
139 | VDSSRIKCSNVN | inactive
140 | VDVAVFLEMLYCWCRDGFTR | 1.79 ± 0.1
141 | VDYLRVLWQAQFGNFELWSR | inactive
142 | VEATSTRGDTAPVPERGMLG | -1.01 ± 1.7
143 | VEFSAIFFCTLLD | inactive
144 | VEFSVFGERNVIYGVLSWRS | 1.12 ± 0.12
145 | VEGRMLSYLHVIYMYSGWRK | inactive
146 | VEKCSVCLPTFEGWPLSKRF | inactive
147 | VERRMTKVWTGARSPGRVFW | inactive
148 | VESYPVGLY | 1.56 ± 0.068
149 | VEVRVYTFF | 2.23 ± 0.074
150 | VEWLTSLVVIFWNFGKNKFL | inactive
151 | VFAAKGPTMYRSARVS | inactive
152 | VFFFMNQSRRDRIE | 1.72 ± 0.11
153 | VFFLNIAIIRVECSYPLVRK | -0.223 ± 0.75
154 | VFFSWPMARKCEGSEDHPNF | 0.005 ± 0.98
155 | VFFYAASD | inactive
156 | VFGFMCNYSFVATSRLCVIG | inactive
157 | VFLHVWCGRVGKL | -0.089 ± 0.98
158 | VFMGQDLWMSLGAEDEDLAW | inactive
159 | VFNMLGFSDY | inactive
160 | VFSVHVWQCSNLFQRMLCNF | 1.06 ± 0.14
